Laboratory results taken from patent US20250367130A1, “THERMORESPONSIVE HYDROGEL CONTAINING METAL-ORGANIC FRAMEWORK PARTICLES FOR NONINVASIVE OCULAR DRUG DELIVERY” (University of Pittsburgh - Of the Commonwealth System of …, priority 2024, published 2025).

Experiment: Biodistribution study of ovalbumin in rabbit eye tissues and plasma, quantified with ELISA
Assay type: in vivo, New Zealand white rabbits
Procedure: Biodistribution studies involved healthy New Zealand white rabbits (n=5). The right eye of the rabbits was given a 100 μL of gel with the MOF and PLGA MP particles, independently, and a 50 μL injection of 10 mg/mL ovalbumin solution, for comparative purposes. The left eye was the experimental control. At 1 and 3 days, rabbits were sacrificed, and both eyes were removed. Aqueous humor, vitreous humor, retina-choroid and plasma were collected, and time-dependent concentrations were quantified with ELISA.
After one administration of the topical delivery system, ovalbumin is detectable in the aqueous humor, vitreous humor, retina-choroid, and plasma. […] However, these concentrations are 10^5 lower than what is seen with intravitreal injections after 3 days.

[1] = after one administration of the topical delivery system, rabbit

B1: ovalbumin (protein, UniProt P01012 2-386, looked up)
Ovalbumin: GSIGAASMEFCFDVFKELKVHHANENIFYCPIAIMSALAMVYLGAKDSTRTQINKVVRFDKLPGFGDSIEAQCGTSVNVHSSLRDILNQITKPNDVYSFSLASRLYAEERYPILPEYLQCVKELYRGGLEPINFQTAADQARELINSWVESQTNGIIRNVLQPSSVDSQTAMVLVNAIVFKGLWEKAFKDEDTQAMPFRVTEQESKPVQMMYQIGLFRVASMASEKMKILELPFASGTMSMLVLLPDEVSGLEQLESIINFEKLTEWTSSNVMEERKIKVYLPRMKMEEKYNLTSVLMAMGITDVFSSSANLSGISSAESLKISQAVHAAHAEINEAGREVVGSAEAGVDAASVSEEFRADHPFLFCIKHIATNAVLFFGRCVSP
notes: test agent, acting as a surrogate agent for other anti-VEGF proteins
After one administration of the topical delivery system (100 μL gel with particles), rabbit
  ovalbumin detection in aqueous humor: detectable
[1]
  ovalbumin concentration in retina-choroid relative to vitreous humor: 9 ×
  ovalbumin concentration in the vitreous humor: ~1 ng/mL
  ovalbumin detection in plasma: detectable
  ovalbumin detection in retina-choroid: detectable
  ovalbumin detection in vitreous humor: detectable
Topical delivery system vs intravitreal injection, after 3 days
  factor by which concentrations are lower than with intravitreal injections: 10^5
